For assay [1], the target named is PRRSV viral lysate (Porcine Reproductive and Respiratory Syndrome Virus). Description: ELISA, plate coated with 0.78 ng PRRSV viral lysate, 1 µg antibody. (ELISA stands for enzyme-linked immunosorbent assay.)
Assay [2] concerns the target porcine coronavirus lysate. The assay is described as follows: ELISA Test 2, plate coated with viral lysate, antibody diluted 1:4000.
For assay [3], the target named is PRRSV viral lysate (Porcine Reproductive and Respiratory Syndrome Virus). The assay is described as above.
The target of assay [4] is porcine pseudorabies virus lysate. Description: ELISA Test 1, plate coated with viral lysate, antibody diluted 1:4000, Group 1.
Assay [5] has as its target porcine coronavirus lysate. Described as above.
In assay [6] the target is PRRSV viral lysate (Porcine Reproductive and Respiratory Syndrome Virus). The description is as above.
The target is the same in assay [7]. Description: ELISA, plate coated with 50.00 ng PRRSV viral lysate, 1 µg antibody.
For assay [8] the target is unchanged. Description: ELISA, plate coated with 6.25 ng PRRSV viral lysate, 1 µg antibody.
Assay [9] has the same target. The assay is described as follows: ELISA, plate coated with 12.50 ng PRRSV viral lysate, 1 µg antibody.
The target is the same in assay [10]. Description: ELISA, plate coated with 1.56 ng PRRSV viral lysate, 1 µg antibody.
The target is the same in assay [11]. The assay is described as follows: ELISA, plate coated with 3.13 ng PRRSV viral lysate, 1 µg antibody.
Assay [12] has the same target.
For assay [13] the target is unchanged. The assay is described as follows: ELISA, plate coated with 25.00 ng PRRSV viral lysate, 1 µg antibody.
The target in assay [14] is porcine pseudorabies virus lysate. Description: ELISA Test 1, plate coated with viral lysate, antibody diluted 1:4000, Group 2.
Assay [15] concerns the target porcine coronavirus lysate. The assay is described as above.
The target of assay [16] is PRRSV viral lysate (Porcine Reproductive and Respiratory Syndrome Virus). The description is as above.

We go through one molecule from patent publication US12625138.

Read-outs that look alike come from different tables or passages of the source.

B1: anti-PRRSV antibody 142 (antibody, V domains shown)
VH: EVQRVESGPGLVKPSQSLSLTCTVTGYSITNDYAWNWIRQFPGNKLEWMGYISYSGSTSYNPYLKSRISITRDTSKNQFFLQLNSVPTEDTATYYCARSTYGNYGYYYAMDCWGQGTSVTVSS
VL: DIVLTQSPASLAVSLGQRATISCRASESIEYYGTSLMQWYQQKPGQPPKLLIYAASNVESGVPARFSGSGSGTDFSLNIHPVEEDDIAMYFCQQSRKVPTFGGGTKLEIKR
Turning to B1, the OD450 was 0.984 OD450 in assay [1]; 0.136 OD450 in assay [2]; 0.411 OD450 in assay [3]; 0.082 OD450 in assay [4]; 0.148 OD450 in assay [5]; 0.385 OD450 in [6]. For the same molecule, the OD450 stood at 1.36 OD450 in [7]; 1.16 OD450 in assay [8]; 1.11 OD450 in assay [9]; 1.05 OD450 in assay [10]; 0.959 OD450 in assay [11]; 1.58 OD450 in assay [12]. The OD450 in [13] was 1.3 OD450; in assay [14] it was 0.08 OD450; in assay [15], 0.133 OD450; in assay [16], 0.344 OD450.
